Results: PMC3542282, “P. falciparum cpn20 Is a Bona Fide Co-Chaperonin That Can Replace GroES in E. coli” (PLoS ONE, 2013)

What was measured:
[1] = molecular target: P. falciparum cpn20 (P. falciparum); test: AUC; sedimentation equilibrium, 12,000 rpm, 20°C, 20 mM Tris-HCl pH 7.4, 200 mM NaCl, read at 280 nm after 10, 12 and 14 hrs; with sedimentation velocity at 35,000 rpm, 0.5 mg/ml
GroEL (E. coli) = GroEL (E. coli) (UniProt P0A6F5)
GroEL [2] = molecular target: T1, GroEL (E. coli, UniProt P0A6F5 1-548)
[3] = molecular target: the molecule itself; test: AUC; sedimentation equilibrium, 12,000 rpm, 20°C, 20 mM Tris-HCl pH 7.4, 200 mM NaCl, read at 280 nm after 10, 12 and 14 hrs; with sedimentation velocity at 35,000 rpm, 0.5 mg/ml
GroEL [4] = molecular target: T1, GroEL; test: cell-based or functional assay

P. falciparum cpn20 (natural protein) showed a stoichiometry N (subunits in the oligomer) [1] of 4 and a protomer ratio of co-chaperonin to GroEL required for half maximal refolding yield of urea-denatured MDH (10 µM GroEL, 0.16 to 20 µM co-chaperonin, 30 minutes) (co-chaperonin to GroEL protomer ratio) (GroEL (E. coli)) of 0.125.

In the case of “GroES (from UniProt P0A6F9 1-97) (natural protein)”, the protomer ratio of co-chaperonin to GroEL required for half maximal refolding yield of urea-denatured MDH (10 µM GroEL, 0.16 to 20 µM co-chaperonin, 30 minutes) (co-chaperonin to GroEL protomer ratio) (GroEL [2]) is reported as 0.125.

B1: A. thaliana cpn20 (natural protein, UniProt O65282 51-253, looked up)
chain: AASVVAPKYTSIKPLGDRVLVKIKEAEEKTLGGILLPSTAQSKPQGGEVVAVGEGRTIGKNKIDITVPTGAQIIYSKYAGTEVEFNDVKHLILKEDDIVGILETEDIKDLKPLNDRVFIKVAEAEEKTAGGLLLTETTKEKPSIGTVIAVGPGSLDEEGKITPLPVSTGSTVLYSKYAGNDFKGKDGSNYIALRASDVMAILS
notes: cpn20 (20 kDa double-domain co-chaperonin of the chloroplast) from A. thaliana, At5g20720; probably the mature protein without the transit peptide (predicted tetramer 90 kDa); also called At-cpn20; At-Cpn20; source: bacterial expression, purified as previously described [23]
With B1 the “stoichiometry N” value [3] was 4 subunits in the oligomer and the “protomer ratio of co-chaperonin to GroEL required for half maximal refolding yield of urea-denatured MDH (10 µM GroEL, 0.16 to 20 µM co-chaperonin, 30 minutes)” value (GroEL [4]) was ~0.125 co-chaperonin to GroEL protomer ratio.
